Source: patent US6875581 (GENOPIA BIOMEDICAL, dated 2005)
Where no end group is shown, it is not given here. [ ]: non-standard residue; d: D form. pS = N[C@@H](COP(=O)(O)O)C(=O)O

Columns and labels:
[1] = molecular target: T1, calcineurin-A-beta1/calcineurin-B (human, UniProt P16298 2-524; P63098 1-170); test: laser fluorescence correlation spectroscopy (FCS)
T1 construct: also called CNAb1-pQE30 product

[2] = molecular target: T2, calcineurin-A-beta2/calcineurin-B (human, UniProt P16298 2-524; P63098 1-170); test: laser fluorescence correlation spectroscopy (FCS)
T2 construct: also called CNAb2-pQE30 product

binding result [1]: binds | binding result [2]: binds
B1: RII-Fluophos (peptide)
peptide: DLDVPIPGRFDRRV[pS](fluorescein)VAAE
notes: Synthetic peptide; It was not converted by calcineurin; also called Fluophos-RII-peptide; fluorescent labeled RII-peptide
